The target of data set [1] is His-tagged human NPM3 (human) (UniProt O75607). As to the kind of experiment: native gel or EMSA.
The target is the same in data set [2]. Description: native MS.
The target in data set [3] is His-tagged human NPM1 (human, UniProt P06748 1-294). Description: native gel or EMSA.
Data set [4] deals with the molecule itself. As to the kind of experiment: cross-linking.

This note sets out measurements from publication PMC3367197 (Nucleic Acids Research, 2012).

Values joined by “and” are separate entries in the source; they are usually repeats but may differ in a detail not shown here. Equal entries are not always repeated.

Chain of His-tagged human NPM1 (P06748 whole entry): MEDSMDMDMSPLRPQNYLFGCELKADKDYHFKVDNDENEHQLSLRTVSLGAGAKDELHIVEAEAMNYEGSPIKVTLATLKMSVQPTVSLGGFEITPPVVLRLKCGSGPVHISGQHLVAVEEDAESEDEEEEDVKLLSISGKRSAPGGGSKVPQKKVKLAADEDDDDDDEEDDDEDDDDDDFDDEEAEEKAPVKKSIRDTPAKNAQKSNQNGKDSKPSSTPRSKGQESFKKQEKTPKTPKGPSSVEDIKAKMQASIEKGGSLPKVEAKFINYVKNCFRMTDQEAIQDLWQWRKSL

Take “His-tagged human NPM3 (from UniProt O75607 1-178) (natural protein)”: the stoichiometry N in data set [1] and in data set [2] was 2 in each case.

B1: His-tagged human NPM3 (natural protein)
chain: MAAGTAAALAFLSQESRTRAGGVGGLRVPAPVTMDSFFFGCELSGHTRSFTFKVEEEDDAEHVLALTMLCLTEGAKDECNVVEVVARNHDHQEIAVPVANLKLSCQPMLSLDDFQLQPPVTFRLKSGSGPVRITGRHQIVTMSNDVSEEESEEEEEDSDEEEVELCPILPAKKQGGRP
As for B1, in data set [3], the “stoichiometry N” value is 4 NPM1 per NPM3 (NPM1:NPM3 4:1).

B2: His-tagged human NPM2 (natural protein)
chain: MNLSSASSTEEKAVTTVLWGCELSQERRTWTFRPQLEGKQSCRLLLHTICLGEKAKEEMHRVEILPPANQEDKKMQPVTIASLQASVLPMVSMVGVQLSPPVTFQLRAGSGPVFLSGQERYEASDLTWEEEEEEEGEEEEEEEEDDEDEDADISLEEQSPVKQVKRLVPQKQASVAKKKKLEKEEEEIRASVRDKSPVKKAKATARAKKPGFKK
As for B2, the “stoichiometry N” value in data set [4] was 5 and 10.
